# Experimental data from US20230265151A1, “GIP/GLP1 CO-AGONIST COMPOUNDS” (priority 2020, published 2023).
# *1 amine or outer side, *2 acyl side, *3 side chain or, on linkers, in order; H or OH if unused. Where no end group is shown, it is not given here. Side-chain parts run from the residue outwards. [ ]: non-standard residue; d: D form. The star is where a group is joined. Decanoyl(10-(4-HOOC-PhO)) = O=C(O)c1ccc(OCCCCCCCCCC(=O)*)cc1; αMePhe(2-F) = C[C@](N)(Cc1ccccc1F)C(=O)O; γGlu = O=C(O)[C@H](CCC(=O)[*:2])N[*:1]; C14 diacid = O=C(O)CCCCCCCCCCCCC(=O)*; αMeY = C[C@](N)(Cc1ccc(O)cc1)C(=O)O; αMeL = CC(C)C[C@](C)(N)C(=O)O; Orn = NCCC[C@H](N)C(=O)O; AEEA = NCCOCCOCC(=O)O; Aib = CC(C)(N)C(=O)O
# T1: human GIP receptor (human, UniProt P48546 22-466)
# T1 sequence (looked up): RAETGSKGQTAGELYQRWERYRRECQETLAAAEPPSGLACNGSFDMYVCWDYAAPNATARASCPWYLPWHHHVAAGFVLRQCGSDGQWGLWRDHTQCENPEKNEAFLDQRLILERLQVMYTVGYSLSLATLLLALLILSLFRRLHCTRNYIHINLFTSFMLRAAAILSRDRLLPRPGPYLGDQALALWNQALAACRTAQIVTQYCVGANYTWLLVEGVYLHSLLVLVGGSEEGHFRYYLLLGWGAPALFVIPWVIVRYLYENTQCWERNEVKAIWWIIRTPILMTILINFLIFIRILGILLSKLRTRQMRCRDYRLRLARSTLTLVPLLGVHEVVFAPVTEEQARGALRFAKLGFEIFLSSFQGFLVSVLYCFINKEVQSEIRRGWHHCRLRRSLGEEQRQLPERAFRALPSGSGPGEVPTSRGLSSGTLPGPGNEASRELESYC
# How the values were obtained:
# Test in all cases: cell-based or functional assay
# human glucagon receptor = human glucagon receptor (human, UniProt P47871 26-477)
# human glucagon receptor, sequence (P47871 26-477): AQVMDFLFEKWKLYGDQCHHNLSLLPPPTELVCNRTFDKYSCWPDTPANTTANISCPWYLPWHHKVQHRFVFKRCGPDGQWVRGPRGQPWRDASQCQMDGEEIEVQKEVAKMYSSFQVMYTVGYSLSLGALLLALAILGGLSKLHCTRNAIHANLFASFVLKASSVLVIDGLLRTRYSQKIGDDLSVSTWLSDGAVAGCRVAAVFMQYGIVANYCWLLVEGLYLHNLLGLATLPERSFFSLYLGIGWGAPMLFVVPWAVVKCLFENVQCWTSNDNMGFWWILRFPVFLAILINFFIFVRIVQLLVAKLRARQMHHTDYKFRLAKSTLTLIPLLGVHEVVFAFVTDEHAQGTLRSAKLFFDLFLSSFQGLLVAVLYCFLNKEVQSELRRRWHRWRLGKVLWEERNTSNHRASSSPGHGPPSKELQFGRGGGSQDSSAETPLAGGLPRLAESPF
# human GIP receptor = biological target: T1, human GIP receptor
# human GLP-1 receptor = human GLP-1 receptor (human, UniProt P43220 24-463)
Binder,cAMP EC50 (1.0% HSA) (human glucagon receptor) [nM],cAMP EC50 (1.0% HSA) (human GIP receptor) [nM],cAMP EC50 (1.0% HSA) (human GLP-1 receptor) [nM],cAMP Emax (1.0% HSA) (human GLP-1 receptor) [%],cAMP Emax (1.0% HSA) (human GIP receptor) [%]
Y[Aib]EGT[αMePhe(2-F)]TSDV[Aib]I[αMeL]LD[Orn]QAQ[Aib][Orn]FIK([AEEA-AEEA-γGlu-Decanoyl(10-(4-HOOC-PhO))])[αMeY]LIK([AEEA-AEEA-γGlu-Decanoyl(10-(4-HOOC-PhO))])GGPSSGAPPPS-NH2 [Example 447],> 9950,1.46,7.85,98.4,
Y[Aib]EGT[αMePhe(2-F)]TSDV[Aib]I[αMeL]LD[Orn]QAQ[Aib][Orn]FIK([AEEA-AEEA-γGlu-C14 diacid])[αMeY]LIK([AEEA-AEEA-γGlu-C14 diacid])GGPSSGAPPPS-NH2 (N-terminus assumed; SMILES CC[C@H](C)[C@H](NC(=O)[C@H](CC(C)C)NC(=O)[C@](C)(Cc1ccc(O)cc1)NC(=O)[C@H](CCCCNC(=O)COCCOCCNC(=O)COCCOCCNC(=O)CC[C@H](NC(=O)CCCCCCCCCCCCC(=O)O)C(=O)O)NC(=O)[C@@H](NC(=O)[C@H](Cc1ccccc1)NC(=O)[C@H](CCCN)NC(=O)C(C)(C)NC(=O)[C@H](CCC(N)=O)NC(=O)[C@H](C)NC(=O)[C@H](CCC(N)=O)NC(=O)[C@H](CCCN)NC(=O)[C@H](CC(=O)O)NC(=O)[C@H](CC(C)C)NC(=O)[C@](C)(CC(C)C)NC(=O)[C@@H](NC(=O)C(C)(C)NC(=O)[C@@H](NC(=O)[C@H](CC(=O)O)NC(=O)[C@H](CO)NC(=O)[C@@H](NC(=O)[C@](C)(Cc1ccccc1F)NC(=O)[C@@H](NC(=O)CNC(=O)[C@H](CCC(=O)O)NC(=O)C(C)(C)NC(=O)[C@@H](N)Cc1ccc(O)cc1)[C@@H](C)O)[C@@H](C)O)C(C)C)[C@@H](C)CC)[C@@H](C)CC)C(=O)N[C@@H](CCCCNC(=O)COCCOCCNC(=O)COCCOCCNC(=O)CC[C@H](NC(=O)CCCCCCCCCCCCC(=O)O)C(=O)O)C(=O)NCC(=O)NCC(=O)N1CCC[C@H]1C(=O)N[C@@H](CO)C(=O)N[C@@H](CO)C(=O)NCC(=O)N[C@@H](C)C(=O)N1CCC[C@H]1C(=O)N1CCC[C@H]1C(=O)N1CCC[C@H]1C(=O)N[C@@H](CO)C(N)=O) [Example 448],> 9950,1.41,7.91,99.5,
YXEGTXTSDXXIXLDXQAQXXFIKXLIKGGPSSGAPPPS (Y-Aib-EGT-αMeF(2F)-TSD-4Pal-Aib-I-αMeL-LD-Orn-QAQ-Aib-Orn-FIK((2-[2-(2-Amino-ethoxy)-ethoxy]-acetyl)2-(γ-Glu)-(10-(4-carboxyphenoxy)decanoyl))-αMeY-LIK((2-[2-(2-Amino-ethoxy)-ethoxy]-acetyl)2-(γ-Glu)-(10-(4-carboxyphenoxy)decanoyl))GGPSSGAPPPS-NH2) [Example 440],> 10100,0.209,2.74,,
YXEGTXTSDXXIXLDXQAQXXFIKXLIKGGPSSGAPPPS (Y-Aib-EGT-αMeF(2F)-TSD-4Pal-Aib-I-αMeL-LD-Orn-QAQ-Aib-Orn-FIK((2-[2-(2-Amino-ethoxy)-ethoxy]-acetyl)-(γ-Glu)-(10-(4-carboxyphenoxy)decanoyl))-αMeY-LIK((2-[2-(2-Amino-ethoxy)-ethoxy]-acetyl)-(γ-Glu)-(10-(4-carboxyphenoxy)decanoyl))GGPSSGAPPPS-NH2) [Example 463],> 9950,0.35,4.09,,
YXEGTXTSDXXIXLDXQAQXXFIKXLIKGGPSSGAPPPS (Y-Aib-EGT-αMeF(2F)-TSD-4Pal-Aib-I-αMeL-LD-Orn-QAQ-Aib-Orn-FIK(Ahx-(2-[2-(2-Amino-ethoxy)-ethoxy]-acetyl)-(γ-Glu)-(10-(4-carboxyphenoxy)decanoyl))-αMeY-LIK(Ahx-(2-[2-(2-Amino-ethoxy)-ethoxy]-acetyl)-(γ-Glu)-(10-(4-carboxyphenoxy)decanoyl))GGPSSGAPPPS-NH2) [Example 455],> 9950,0.362,5.24,,
YXEGTXTSDXXIXLDXQAQXXFIKXLIKGGPSSGAPPPS (Y-Aib-EGT-αMeF(2F)-TSD-4Pal-Aib-I-αMeL-LD-Orn-QAQ-Aib-Orn-FIK((2-[2-(2-Amino-ethoxy)-ethoxy]-acetyl)-Ahx-(γ-Glu)-(10-(4-carboxyphenoxy)decanoyl))-αMeY-LIK((2-[2-(2-Amino-ethoxy)-ethoxy]-acetyl)-Ahx-(γ-Glu)-(10-(4-carboxyphenoxy)decanoyl))GGPSSGAPPPS-NH2) [Example 453],> 9950,0.451,5.47,,
YXEGTXTSDXXIXLDXQAQXXFIKXLIKGGPSSGAPPPS (Y-Aib-EGT-αMeF(2F)-TSD-4Pal-Aib-I-αMeL-LD-Orn-QAQ-Aib-Orn-FIK((2-[2-(2-Amino-ethoxy)-ethoxy]-acetyl)2-(γ-Glu)-CO-(CH2)14-CO2)-αMeY-LIK((2-[2-(2-Amino-ethoxy)-ethoxy]-acetyl)2-(γ-Glu)-CO-(CH2)14-CO2)GGPSSGAPPPS-NH2) [Example 443],> 9950,12.2,133,,
YXEGTXTSDXXIXLDXQAQXXFIKXLIKGGPSSGAPPPS (Y-Aib-EGT-αMeF(2F)-TSD-4Pal-Aib-I-αMeL-LD-Orn-QAQ-Aib-4Pal-FIK((2-[2-(2-Amino-ethoxy)-ethoxy]-acetyl)2-(γ-Glu)-CO-(CH2)12-CO2H)-αMeY-LIK((2-[2-(2-Amino-ethoxy)-ethoxy]-acetyl)2-(γ-Glu)-CO-(CH2)12-CO2H)GGPSSGAPPPS-NH2) [Example 444],> 9950,0.57,7.51,,
YXEGTXTSDXXGXLDXQAQXXFIKXLIKGGPSSGAPPPS (Y-Aib-EGT-αMeF(2F)-TSD-4Pal-Aib-G-αMeL-LD-Orn-QAQ-Aib-Orn-FIK((2-[2-(2-Amino-ethoxy)-ethoxy]-acetyl)2-(γ-Glu)-CO-(CH2)12-CO2H)-αMeY-LIK((2-[2-(2-Amino-ethoxy)-ethoxy]-acetyl)2-(γ-Glu)-CO-(CH2)12-CO2H)GGPSSGAPPPS-NH2) [Example 441],> 9950,1.38,5.75,111,83.8
YXEGTXTSDXXIXLDXQAQXXFIKXLIKGGPSSGAPPPS (not fully specified; Y-Aib-EGT-αMeF(2F)-TSD-4Pal-Aib-I-αMeL-LD-Orn-QAQ-Aib-Orn-FIK((2-[2-(2-Amino-ethoxy)-ethoxy]-acetyl)-Ahx-(γ-Glu)-CO-(CH2)12-CO2)-αMeY-LIK((2-[2-(2-Amino-ethoxy)-ethoxy]-acetyl)-Ahx-(γ-Glu)-CO-(CH2)12-CO2)GGPSSGAPPPS-NH2) [Example 449],> 9950,0.595,7.27,,
YXEGTXTSDXXIXLDXQAQXXFIKXLIKGGPSSGAPPPS (Y-Aib-EGT-αMeF(2F)-TSD-4Pal-Aib-I-αMeL-LD-Orn-QAQ-Aib-Orn-FIK(PEG3-(γ-Glu)-CO-(CH2)12-CO2H)-αMeY-LIK(PEG3-(γ-Glu)-CO-(CH2)12-CO2H)GGPSSGAPPPS-NH2) [Example 458],> 9950,0.726,7.61,,
YXEGTXTSDXXIXLDXQAQXXFIKXLIKGGPSSGAPPPS (Y-Aib-EGT-αMeF(2F)-TSD-4Pal-Aib-I-αMeL-LD-Orn-QAQ-Aib-Orn-FIK(Aoc-(2-[2-(2-Amino-ethoxy)-ethoxy]-acetyl)-(γ-Glu)-(10-(4-carboxyphenoxy)decanoyl))-αMeY-LIK(Aoc-(2-[2-(2-Amino-ethoxy)-ethoxy]-acetyl)-(γ-Glu)-(10-(4-carboxyphenoxy)decanoyl))GGPSSGAPPPS-NH2) [Example 456],> 9950,0.878,14.7,,
YXEGTXTSDXXIXLDXQAQXXFIKXLIKGGPSSGAPPPS (not fully specified; Y-Aib-EGT-αMeF(2F)-TSD-4Pal-Aib-I-αMeL-LD-Orn-QAQ-Aib-Orn-FIK((2-[2-(2-Amino-ethoxy)-ethoxy]10-(4-carboxyphenoxy)decanoyl))-αMeY-LIK((2-[2-(2-Amino-ethoxy)-ethoxy]-acetyl)-Aoc-(γ-Glu)-(10-(4-carboxyphenoxy)decanoyl))GGPSSGAPPPS-NH2) [Example 454],> 9950,1.3,18.6,,
YXEGTXTSDXXIXLDXQAQXXFIKXLIKGGPSSGAPPPS (Y-Aib-EGT-αMeF(2F)-TSD-4Pal-Aib-I-αMeL-LD-Orn-QAQ-Aib-Orn-FIK((2-[2-(2-Amino-ethoxy)-ethoxy]-acetyl)-(γ-Glu)-CO-(CH2)12-CO2H)-αMeY-LIK((2-[2-(2-Amino-ethoxy)-ethoxy]-acetyl)-(γ-Glu)-CO-(CH2)12-CO2H)GGPSSGAPPPS-NH2) [Example 459],> 9950,0.323,4.87,,
YXEGTXTSDXXIXLDXQAQXXFIKXLIKGGPSSGAPPPS (Y-Aib-EGT-αMeF(2F)-TSD-4Pal-Aib-I-αMeL-LD-Orn-QAQ-Aib-Orn-FIK(PEG4-(γ-Glu)-CO-(CH2)12-CO2H)-αMeY-LIK(PEG4-(γ-Glu)-CO-(CH2)12-CO2H)GGPSSGAPPPS-NH2) [Example 457],> 9950,0.334,4.69,,
YXEGTXTSDXXIXLDXQAQXXFIKXLIKGGPSSGAPPPS (Y-Aib-EGT-αMeF(2F)-TSD-4Pal-Aib-I-αMeL-LD-Orn-QAQ-Aib-Orn-FIK(2-[2-(2-Amino-ethoxy)-ethoxy]-acetyl)2-(γ-Glu)-(11-(4-carboxyphenoxy)undecanoyl)-αMeY-LIK((2-[2-(2-Amino-ethoxy)-ethoxy]-acetyl)2-(γ-Glu)-(11-(4-carboxyphenoxy)undecanoyl)GGPSSGAPPPS-NH2)) [Example 442],> 9950,0.687,7.63,,
YXEGTXTSDXXIXLDXQAQXXFIKXLIKGGPSSGAPPPS (not fully specified; Y-Aib-EGT-αMeF(2F)-TSD-4Pal-Aib-I-αMeL-LD-Orn-QAQ-Aib-Orn-FIK(Aoc-(2-[2-(2-Amino-ethoxy)-ethoxy]-acetyl)-(γ-Glu)-CO-(CH2)12-CO2)-αMeY-LIK(Aoc-(2-[2-(2-Amino-ethoxy)-ethoxy]-acetyl)-(γ-Glu)-CO-(CH2)12-CO2)GGPSSGAPPPS-NH2) [Example 452],> 9950,1.21,16.8,,
YXEGTXTSDXXIXLDXQAQXXFIKXLIKGGPSSGAPPPS (not fully specified; Y-Aib-EGT-αMeF(2F)-TSD-4Pal-Aib-I-αMeL-LD-Orn-QAQ-Aib-Orn-FIK(Ahx-(2-[2-(2-Amino-ethoxy)-ethoxy]-acetyl)-(γ-Glu)-CO-(CH2)12-CO2)-αMeY-LIK(Ahx-(2-[2-(2-Amino-ethoxy)-ethoxy]-acetyl)-(γ-Glu)-CO-(CH2)12-CO2)GGPSSGAPPPS-NH2) [Example 451],> 9950,0.518,7.23,,
YXEGTXTSDXXIXLDXQAQXXFIKXLIKGGPSSGAPPPS (Y-Aib-EGT-αMeF(2F)-TSD-4Pal-Aib-I-αMeL-LD-Orn-QAQ-Aib-Orn-FIK(PEG4-(γ-Glu)-(10-(4-carboxyphenoxy)decanoyl))-αMeY-LIK(PEG4-(γ-Glu)-(10-(4-carboxyphenoxy)decanoyl))GGPSSGAPPPS-NH2) [Example 461],> 10100,0.247,2.76,,
YXEGTXTSDXXIXLDXQAQXXFIKXLIKGGPSSGAPPPS (Y-Aib-EGT-αMeF(2F)-TSD-4Pal-Aib-I-αMeL-LD-Orn-QAQ-Aib-Orn-FIK(PEG3-(γ-Glu)-(10-(4-carboxyphenoxy)decanoyl))-αMeY-LIK(PEG3-(γ-Glu)-(10-(4-carboxyphenoxy)decanoyl))GGPSSGAPPPS-NH2) [Example 462],> 9950,0.317,3.34,,
YXEGTXTSDXXIXLDXQAQXXFIKXLIKGGPSSGAPPPS (not fully specified; Y-Aib-EGT-αMeF(2F)-TSD-4Pal-Aib-I-αMeL-LD-Orn-QAQ-Aib-Orn-FIK((2-[2-(2-Amino-ethoxy)-ethoxy]-acetyl)-Aoc-(γ-Glu)-CO-(CH2)12-CO2)-αMeY-LIK((2-[2-(2-Amino-ethoxy)-ethoxy]-acetyl)-Aoc-(γ-Glu)-CO-(CH2)12-CO2)GGPSSGAPPPS-NH2) [Example 450],> 9950,2.44,32.3,,
Y[Aib]EGT[αMePhe(2-F)]TSDV[Aib]I[αMeL]LD[Orn]QAQ[Aib]EFIK([AEEA-AEEA-γGlu-Decanoyl(10-(4-HOOC-PhO))])[αMeY]LIK([AEEA-AEEA-γGlu-Decanoyl(10-(4-HOOC-PhO))])GGPSSGAPPPS-NH2 [Example 446],> 9950,5.14,33.5,105,97
